The text below walks through data of patent US20260234255A1 (Genmab, published 2026).

Numbering of substitutions follows the chain as printed.

One assay addresses T1, cynomolgus monkey CD3 (cynomolgus monkey, UniProt Q95LI5 22-198).
T1 construct: CD3 endogenously expressed on T cells within cynomolgus monkey PBMCs
Briefly: flow cytometry, cynomolgus monkey T cells (PBMCs). How it is done: Cynomolgus monkey PBMCs (Tebu-Bio, The Netherlands; cat. no. PBMCMFA-10) or purified human T cells were plated in polystyrene 96-well round-bottom plates. T cells were derived from human donor buffy coats (Sanquin, Amsterdam, The Netherlands) and isolated using the RosetteSep human T cell enrichment cocktail (Stemcell Technologies, France, cat. no. 15061) according to manufacturer's instructions. […] After washing twice in staining buffer, cells were incubated in 50 μL secondary R-PE-conjugated goat-anti-human IgG antibody at 4° C. for 30 min (1:400 dilution). After washing twice in staining buffer, T cells were stained for T-cell markers CD3 (1:100; Miltenyi biotec, clone 10D12, conjugated to APC), CD4 (1:50; eBioscience, clone OKT4, conjugated to APC-Cy7), CD8 (1:100; Biolegend, clone RPA-T8, conjugated to AF700) and T-cell activation markers CD69 (1:50; BD Biosciences, clone AB2439, conjugated to FITC), CD25 (1:50; eBioscience, clone BC96, conjugated to PE-Cy7) and CD279/PD1 (1:50; BD Biosciences, clone AEH12.2H7, conjugated to BV605). Single stained samples with Ultracomp beads (5 μL; Invitrogen, cat. no. 01-2222-42) were used for compensation adjustments of the flow cytometer. After 30 min of incubation at 4° C., cells were washed twice with staining buffer, resuspended in 100 μL staining buffer and analyzed using a FACS Fortessa (BD Biosciences). Data were processed using FlowJo (BD Biosciences).
A general note: Flow cytometry measures light scatter and fluorescence of single cells or particles in a stream.

Assay [1] concerns the target T2, human CD30 (human, UniProt P28908 19-595).
T2 construct: also called huCD30; TNFRSF8
T2 sequence: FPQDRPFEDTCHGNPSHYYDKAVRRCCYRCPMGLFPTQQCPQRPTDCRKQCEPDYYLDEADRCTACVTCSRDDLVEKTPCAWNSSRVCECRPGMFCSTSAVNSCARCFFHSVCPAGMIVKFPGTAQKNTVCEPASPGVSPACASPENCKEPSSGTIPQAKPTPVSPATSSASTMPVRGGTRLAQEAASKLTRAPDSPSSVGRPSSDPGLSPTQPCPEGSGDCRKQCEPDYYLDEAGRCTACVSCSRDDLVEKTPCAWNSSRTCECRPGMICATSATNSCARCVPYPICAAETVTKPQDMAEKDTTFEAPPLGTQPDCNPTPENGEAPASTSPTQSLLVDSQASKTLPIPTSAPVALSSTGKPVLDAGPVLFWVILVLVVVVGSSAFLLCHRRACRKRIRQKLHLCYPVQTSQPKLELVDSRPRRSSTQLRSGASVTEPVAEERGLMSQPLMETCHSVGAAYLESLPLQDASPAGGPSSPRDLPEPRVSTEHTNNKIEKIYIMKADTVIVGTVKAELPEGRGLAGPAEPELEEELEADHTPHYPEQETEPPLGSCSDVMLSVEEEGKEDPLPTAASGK
Briefly: flow cytometry, SU-DHL-1 cells. The method, boiled down: (§1)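 CD3×CD30 bispecific antibodies, 3-fold serial dilutions from 0.0046 to 10 μg/mL, incubated with 3×10⁴ SU-DHL-1 (ALCL) or HDLM-2 (HL) cells for 30 min at 4 °C, then secondary antibody 30 min at 4 °C. Live cells gated by FSC/SSC and TO-PRO-3 exclusion; binding curves fitted by four-parameter sigmoidal regression.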

The target of assay [2] is T2, human CD30. Briefly: flow cytometry, HDLM-2 cells. The essentials: as §1
Assay [3] addresses T2, human CD30. Briefly: flow cytometry, DEL cells, experiment N = 1.
The target in assay [4] is T2, human CD30. Briefly: flow cytometry, SUP-T1 cells (TLL), average of 2 tests; SUP-T1 cells (TLL), average of 2 tests. How it is done:
(§2) Cells (3×10⁴ cells/well) were incubated in polystyrene 96-well round-bottom plates (Greiner bio-one, cat. no. 650180) with serial dilutions of antibodies (range 0.0046 to 10 μg/mL in 3-fold dilution steps) in 50 μL staining buffer at 4° C. for 30 min. After washing twice in staining buffer, cells were incubated with 50 μL secondary antibody at 4° C. for 30 min. […] Next, cells were washed twice in staining buffer, resuspended in 100 μL staining buffer supplemented with TO-PRO-3 iodide (Thermo Fisher Scientific; cat. no. T3605; 1:8000 dilution) and analyzed on a FACSCelesta flow cytometer (BD Biosciences, USA). Live cells were gated based on FSC/SSC and absence of TOPRO-3 staining. Binding curves were analyzed by non-linear regression of log-transformed data (sigmoidal dose-response with variable slope, four parameters) using GraphPad Prism V7.02 software (GraphPad Software, San Diego, CA, USA).

Assay [5] deals with T2, human CD30. Briefly: flow cytometry, L-428 cells (HL), range of 2 tests. How it is done:
as §2

The target of assay [6] is T2, human CD30. Briefly: flow cytometry, JVM-2 cells (MCL), average of 3 tests. As for the experimental part: as §2
Assay [7] deals with T2, human CD30. Briefly: flow cytometry, SUP-T1 cells (TLL), range of 2 tests. How it is done: as §2
Assay [8] concerns the target T2, human CD30. Briefly: flow cytometry, L-82 cells (ALCL), range of 2 tests. How it is done:
as §2

Assay [9] addresses T2, human CD30. Briefly: flow cytometry, KI-JK cells (ALCL), average of 3 tests. As for the experimental part:
as §2

T1 sequence (Q95LI5 22-198): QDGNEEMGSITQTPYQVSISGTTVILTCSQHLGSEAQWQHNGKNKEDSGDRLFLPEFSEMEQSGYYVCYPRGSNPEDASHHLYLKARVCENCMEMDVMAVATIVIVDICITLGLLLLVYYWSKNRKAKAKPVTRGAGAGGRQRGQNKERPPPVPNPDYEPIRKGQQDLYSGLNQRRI

B1: bsG1-huCD3-FEALxCD30-MDX060-FEAR (bispecific antibody, human IgG1, kappa, lambda)
heavy 1: not shown
light 1: not shown
heavy 2: QVQLQQWGAGLLKPSETLSLTCAVYGGSFSAYYWSWIRQPPGKGLEWIGDINHGGGTNYNPSLKSRVTISVDTSKNQFSLKLNSVTAADTAVYYCASLTAYWGQGSLVTVSSASTKGPSVFPLAPSSKSTSGGTAALGCLVKDYFPEPVTVSWNSGALTSGVHTFPAVLQSSGLYSLSSVVTVPSSSLGTQTYICNVNHKPSNTKVDKRVEPKSCDKTHTCPPCPAPEFEGGPSVFLFPPKPKDTLMISRTPEVTCVVVAVSHEDPEVKFNWYVDGVEVHNAKTKPREEQYNSTYRVVSVLTVLHQDWLNGKEYKCKVSNKALPAPIEKTISKAKGQPREPQVYTLPPSREEMTKNQVSLTCLVKGFYPSDIAVEWESNGQPENNYKTTPPVLDSDGSFFLYSRLTVDKSRWQQGNVFSCSVMHEALHNHYTQKSLSLSPG
light 2: DIQMTQSPTSLSASVGDRVTITCRASQGISSWLTWYQQKPEKAPKSLIYAASSLQSGVPSRFSGSGSGTDFTLTISSLQPEDFATYYCQQYDSYPITFGQGTRLEIKRTVAAPSVFIFPPSDEQLKSGTASVVCLLNNFYPREAKVQWKVDNALQSGNSQESVTEQDSKDSTYSLSSTLTLSKADYEKHKVYACEVTHQGLSSPVTKSFNRGEC
notes: also called bsG1-huCD3xCD30-MDX060
Consider B1, for which the “EC50 (read off the curve)” value with cynomolgus monkey CD3 was roughly 0.4 mg/L; in the assay with human CD30 [1], roughly 0.4 mg/L; with human CD30 [2], roughly 0.3 mg/L. In addition, the EC50 with human CD30 [3] was 0.302 mg/L.

B2: bsG1-huCD3-FEALxCD30-MDX060-FERR (bispecific antibody, human IgG1, kappa, lambda)
heavy 1: not shown
light 1: not shown
heavy 2: B1 heavy 2 with G231R, A260D
light 2: B1 light 2
notes: Bispecific IgG1 made by controlled Fab-arm exchange; also called bsIgG1-huCD3-FEALxCD30-MDX060-FERR; bsG1-huCD3×CD30-MDX060
Consider B2, for which the EC50 with human CD30 [4] was 0.346 mg/L; with human CD30 [5], 0.174 mg/L; with human CD30 [6], 0.126 mg/L; in the assay with human CD30 [7], 0.257 to 0.434 mg/L; in the assay with human CD30 [8], 0.184 to 0.215 mg/L; with human CD30 [9] it was 0.191 mg/L.

By EC50 (read off the curve) is commonly meant the midpoint of the concentration-response curve. A word on the EC50: it is the midpoint of the concentration-response curve.
